# Results taken from the supplement of paper PMC10126150.
# ± gives the standard deviation of the averaged measurements.
# Tested on: ATP
# Assay: switch fluorescence ratio, 500 uM ATP over buffer (Cy3 cluster intensity, sum of 5 cycles each) (fold (ratio)); higher = stronger signal-on switching upon ATP binding; sequences stand for … in TCGTCGGCAGCGTCAGATGTGTATAAGAGACAGTTTTTTTTTTTTTTTTTTTTTTTTT…TC
# Settings: aptamer strand: ATP DNA aptamer (quencher-CACCTGGGGGAGTATTGCGGAGGAAGG + anchor), 100 nM annealed; ATP concentration: 500 uM
# Summary of the method: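 Per cluster, summed Cy3 intensity from the target cycles was divided by that from the buffer cycles to give the fluorescence ratio, then averaged per switch-domain sequence. Clusters outside 100-1000 RFU were excluded. The Cy3-labelled switching-strand clusters, on a modified Illumina MiSeq flow-cell, were annealed to 100 nM quencher-labelled ATP aptamer and imaged in selection buffer, then after 15 min with 500 uM ATP at 22 °C, for five cycles with NaOH stripping and re-annealing between them.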
# 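Note: ATP exposure 15 min at 22 °C before imaging.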
row,Sequence,switch fluorescence ratio
1,GGGCTGTCAC,0.997 ± 0.013
2,AGCATTGTCA,1.01 ± 0.013
3,TAGAACGGGG,0.9978 ± 0.0022
4,TGGAAGGGGC,1.04 ± 0.035
5,TGGGTTCGAT,1.02 ± 0.015
6,TAAAAGGGTA,1 ± 0.019
7,CGTTCTATCT,1 ± 0.079
8,TTTCAATGTC,0.97 ± 0.11
9,AAGCGCCTTT,0.985 ± 0.02
10,CTTAGTGGCG,0.9757 ± 0.0038
11,TATGCGGTCC,1.02 ± 0.019
12,ATTATGGGTA,1.02 ± 0.036
13,TTTGAATCTT,1 ± 0.02
14,ACGTCATAGT,1.14 ± 0.047
15,TACTACAGGG,1.11 ± 0.013
16,AGGGAAATAG,1.02 ± 0.023
17,ATTTGTTGGT,0.991 ± 0.013
18,TTTCGGCTAT,1.12 ± 0.15
19,AAATCATTAT,1.01 ± 0.019
20,CGTCAGGTGT,3.713 ± 0.012
21,CCAAGTAATT,1.2 ± 0.019
22,TTCTGAGAAT,1.042 ± 0.0044
23,GCCTGCTTGC,1.03 ± 0.053
24,ATCTGGCGTC,0.998 ± 0.033
25,ATAGGGTATA,0.981 ± 0.055

row,Sequence,switch fluorescence ratio
1,AGAGGTCCGA,0.991 ± 0.037
2,TCATGGATTT,1.01 ± 0.026
3,CCATTTGAGG,0.987 ± 0.059
4,TAGGCGTCTG,1 ± 0.012
5,TTTACTGGGG,1.01 ± 0.023
6,GATTGGAGGG,0.997 ± 0.026
7,GGTAGAGATT,1.02 ± 0.037
8,TTAACGGGTT,1.02 ± 0.037
9,TTAGGCGGTT,1 ± 0.017
10,TGCTTTGGGG,0.982 ± 0.071
11,GGTTCTATTT,1.03 ± 0.016
12,GATTAAAGTC,1.03 ± 0.034
13,CATGAAGGTA,0.9566 ± 0.0087
14,CGGTAAGTGG,0.988 ± 0.024
15,AGGGCAAGAG,1.38 ± 0.054
16,TTAGGCGGGT,1.01 ± 0.064
17,AAAGATGATG,1.0025 ± 0.00068
18,CGGTGTTGCC,0.971 ± 0.011
19,ATTGCTGGGG,1.01 ± 0.056
20,ATTGGACTG,1.01 ± 0.035
21,TTTTCGAGCT,1.006 ± 0.0095
22,CCTTTTCAGG,1.03 ± 0.023
23,ATGAGCGGCG,0.9917 ± 0.0012
24,GTCGTCGTCG,0.972 ± 0.012
25,GTGTCTGGGG,0.9858 ± 0.0076

row,Sequence,switch fluorescence ratio
1,TTAATCTACT,1.01 ± 0.015
2,AGAGGTTTGG,0.9944 ± 0.0051
3,GGGATCTACG,1.04 ± 0.026
4,TTTTTCAGGA,0.975 ± 0.024
5,AGATCCTCTA,1 ± 0.011
6,ACGGGAGTGC,1.03 ± 0.046
7,GCTGGACGTG,0.9912 ± 0.0055
8,GAGGTAATC,1.02 ± 0.037
9,GGATGGGGAA,0.998 ± 0.024
10,TTTATTTGAC,1.03 ± 0.053
11,TGGGGAAAAC,1.02 ± 0.051
12,ATCCGGGGAA,1.02 ± 0.0032
13,GGACAGAGGT,1 ± 0.044
14,TTGGCGGGGA,0.987 ± 0.054
15,GTTGGTTGTT,0.985 ± 0.023
16,TGCAATTTTA,1.03 ± 0.023
17,ATTAAATAAC,1.02 ± 0.02
18,AACGCGGTGG,0.941 ± 0.017
19,CATAGCGATA,3.48 ± 0.28
20,ATTGCTATGG,1.01 ± 0.016
21,TCCGATGCGT,2.97 ± 2.8
22,AGAGATTGTT,0.94745 ± 0.00025
23,CTCGGGAGTA,1 ± 0.042
24,CTGTACTGGG,0.9989 ± 0.0061
25,TAAGATTGTT,1.02 ± 0.017

row,Sequence,switch fluorescence ratio
1,AGGCAGTTCG,0.996 ± 0.02
2,TTGTGTAAGC,1.01 ± 0.038
3,AAAGTAAGCC,0.984 ± 0.018
4,TATTTGACG,1.02 ± 0.035
5,TAAATCGGCA,1.004 ± 0.0021
6,ACTGTCGGGC,1.03 ± 0.025
7,CGCTGGATGG,0.985 ± 0.0075
8,TAGGGGTCCA,0.987 ± 0.018
9,TAGTGTCAGG,0.988 ± 0.038
10,GGTATTATTT,0.995 ± 0.023
11,TTGGGCGAAT,0.988 ± 0.021
12,GCGATGGGGA,1.012 ± 0.0098
13,CAAACGTGTG,0.991 ± 0.041
14,AAGATTTTGG,0.979 ± 0.015
15,TACGTGGTGG,1.05 ± 0.024
16,TCTGTGGGGG,1.01 ± 0.016
17,GGGGTTTCCG,0.9992 ± 0.0093
18,CAATCATGTT,1.02 ± 0.027
19,GGACGTTTTG,0.98 ± 0.012
20,ACGTGACCAT,1.33 ± 0.047
21,AGATAATTCT,1.02 ± 0.013
22,CATAGCCGGT,1.012 ± 0.0031
23,GGTTATAATG,1.02 ± 0.012
24,TTTATTCTCT,1.01 ± 0.019
25,GTATTATCTG,0.9495 ± 0.0038

row,Sequence,switch fluorescence ratio
1,GTCTCAAAGA,1.017 ± 0.0083
2,TTTTGTTTAT,1.01 ± 0.058
3,CAGAGGATCA,0.996 ± 0.015
4,GCTGGGGGCC,0.981 ± 0.028
5,TTTTTTGACT,0.995 ± 0.04
6,GCAGTGCCTA,0.993 ± 0.044
7,ATGAAAGTGC,1.02 ± 0.017
8,CATCGTGGTA,1.04 ± 0.11
9,TTCTTTATGT,0.999 ± 0.021
10,GTTTGAACGC,1.08 ± 0.018
11,ATGGTCGGAT,0.9804 ± 0.0098
12,CAACTGCACG,1.22 ± 0.079
13,TTTGCAACGA,1.25 ± 0.31
14,GGAGTTTTGA,0.982 ± 0.02
15,AAGGGAAAGA,1.02 ± 0.061
16,GAGCAGTGCA,1.03 ± 0.037
17,TTCGGATGAG,0.977 ± 0.041
18,TAATTGGGTT,1 ± 0.019
19,AAGGGGGCGT,1 ± 0.026
20,GGCACAGATT,1.01 ± 0.019
21,GGTGAAGCTG,1.05 ± 0.14
22,CGGTTATACT,1.25 ± 0.021
23,GTAGGTAAGC,1.03 ± 0.057
24,CCGGCACCTG,1.02 ± 0.025
25,GCATGGCGGC,1.01 ± 0.019

row,Sequence,switch fluorescence ratio
1,AGTTGGGAGC,0.991 ± 0.02
2,GATTGGGGGC,1.04 ± 0.12
3,GACGCAGGTG,2.5 ± 0.24
4,GGACGGGTTA,1 ± 0.016
5,AAAGTTTGTT,1.025 ± 0.007
6,ATTTCGGGGT,1.01 ± 0.042
7,TTTGCGTTTC,1.07 ± 0.039
8,TTTTGTGGTT,1.02 ± 0.065
9,AGGATTGTGA,1.02 ± 0.028
10,CGCATAGCTT,1.12 ± 0.021
11,GTCCAAAAAA,1.08 ± 0.067
12,CCTTGCACG,1.18 ± 0.22
13,GGCGTAGGGG,1.02 ± 0.038
14,GAAGGGCAAG,1.02 ± 0.038
15,GGTCAGGGTA,1.01 ± 0.04
16,ACGGAAATGT,1.18 ± 0.1
17,CTGGGGGTAA,0.992 ± 0.02
18,AACCTGGGGC,1.15 ± 0.044
19,ATGCAGGTCC,1.03 ± 0.037
20,CAAGACGTTG,0.974 ± 0.012
21,ACGAGCCATG,1.1 ± 0.015
22,ATAGGGTGTG,1.02 ± 0.076
23,CTTTGCTTTT,0.968 ± 0.023
24,GCGCGCGATT,0.997 ± 0.025
25,TTAGTTTTTT,1.01 ± 0.019

row,Sequence,switch fluorescence ratio
1,TGACGGTTTA,1.023 ± 0.0016
2,AAAGGGAACC,1.017 ± 0.0037
3,TGCATTTATG,1.02 ± 0.043
4,TACTAATGGA,1.01 ± 0.041
5,TAGGGCGCCA,0.995 ± 0.057
6,GACCAGGTTA,1.181 ± 0.0052
7,AAAGGTTAAA,0.99 ± 0.018
8,AGTAAAGGGA,1.02 ± 0.029
9,AAGGGGCCGC,0.982 ± 0.026
10,TGACAGTGAA,1.01 ± 0.02
11,ATTCTGCTCC,0.991 ± 0.041
12,TTTCAGTCGC,0.9995 ± 0.0047
13,TTTTCGGTAG,0.989 ± 0.027
14,GGGTAAAAAG,0.991 ± 0.018
15,AAAGTATATA,1.02 ± 0.04
16,TACTGGTGGT,0.992 ± 0.016
17,TGGTGGCTGG,0.989 ± 0.028
18,CTGTGACCGT,1.02 ± 0.025
19,GAATTAGGTG,1.21 ± 0.029
20,CTAATTGTGT,0.9933 ± 0.0034
21,GTTGATCTGC,1 ± 0.029
22,CGCGTCAACG,1.01 ± 0.027
23,TTTGAGGAGG,0.9876 ± 0.0046
24,ACTAAATCGG,1.02 ± 0.039
25,ATTGTTGATC,1.01 ± 0.029

row,Sequence,switch fluorescence ratio
1,TGGTGTTTGG,0.979 ± 0.032
2,CGTTTAAGGG,0.9819 ± 0.0074
3,CGATTTAGAG,0.988 ± 0.019
4,TGGGAGAGTA,0.996 ± 0.034
5,CCAATTAATC,1.03 ± 0.032
6,TTTTGAAATA,0.997 ± 0.017
7,ACTCGCGGGC,1.98 ± 0.21
8,AACTGTAGAC,1.121 ± 0.0022
9,GATTTTGGTC,0.967 ± 0.054
10,TGGTGGTCGC,0.9778 ± 0.0044
11,GTGGTAGCCG,1.0015 ± 0.00029
12,CAAAAAATAC,2.23 ± 1.7
13,AATCTGCTCG,0.9864 ± 0.002
14,TGATATATTT,1.02 ± 0.046
15,GTTGAATCTT,0.995 ± 0.035
16,GGATAAGGTT,0.9871 ± 0.0022
17,GTTTTTTAGA,0.9728 ± 0.0018
18,TGAAATTACT,1.05 ± 0.033
19,TTTGGTTTTG,0.995 ± 0.038
20,AGTGATGCTT,0.992 ± 0.036
21,TTGTGGGTAT,0.954 ± 0.013
22,AGACTTCAGC,1.04 ± 0.022
23,AACTTGGTGG,0.944 ± 0.033
24,GCCAGGGTCA,1.025 ± 0.0066
25,TTTGATAGTT,1.01 ± 0.018
